Measured values as given in patent publication US20170037124A1 (Regeneron, published 2017).

T1: human ANGPTL8 expressed with C-terminal mouse IgG2a Fc tag (hANGPTL8-mFc; SEQ ID NO: 340) (human)
T1 construct: also called Angiopoietin-like protein 8
T1 chain: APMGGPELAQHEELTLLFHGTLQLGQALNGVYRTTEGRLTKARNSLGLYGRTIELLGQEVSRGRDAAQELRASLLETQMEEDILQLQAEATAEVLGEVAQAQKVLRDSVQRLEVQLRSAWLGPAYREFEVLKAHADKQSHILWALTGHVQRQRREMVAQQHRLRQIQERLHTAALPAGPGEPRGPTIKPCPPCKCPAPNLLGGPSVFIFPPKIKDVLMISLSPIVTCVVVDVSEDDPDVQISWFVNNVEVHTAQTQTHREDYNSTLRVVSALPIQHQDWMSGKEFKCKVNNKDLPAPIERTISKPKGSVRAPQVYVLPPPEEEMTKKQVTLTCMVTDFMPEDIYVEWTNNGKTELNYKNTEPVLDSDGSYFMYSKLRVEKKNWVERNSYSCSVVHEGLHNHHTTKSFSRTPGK

T2: monkey ANGPTL8 expressed with C-terminal mouse IgG2a Fc tag (MfANGPTL8-mFc; SEQ ID NO: 341) (cynomolgus monkey)
T2 construct: also called cynomolgus monkey ANGPTL8
T2 chain: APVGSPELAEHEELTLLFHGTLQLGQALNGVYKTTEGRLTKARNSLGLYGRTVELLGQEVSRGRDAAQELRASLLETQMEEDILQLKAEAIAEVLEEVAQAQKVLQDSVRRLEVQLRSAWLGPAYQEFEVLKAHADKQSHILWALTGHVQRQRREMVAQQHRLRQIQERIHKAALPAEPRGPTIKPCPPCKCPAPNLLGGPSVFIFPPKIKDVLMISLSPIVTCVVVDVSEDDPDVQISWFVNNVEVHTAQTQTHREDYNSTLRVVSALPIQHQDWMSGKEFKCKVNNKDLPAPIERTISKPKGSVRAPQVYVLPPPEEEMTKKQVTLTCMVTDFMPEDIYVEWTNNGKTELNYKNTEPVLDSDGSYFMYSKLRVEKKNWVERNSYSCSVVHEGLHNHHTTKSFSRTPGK

T3: peptide from the N-terminal coiled-coil region of human ANGPTL4 (hANGPTL4 peptide, SEQ ID NO: 339) (human)
T3 peptide: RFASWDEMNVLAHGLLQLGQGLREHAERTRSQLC

T4: human ANGPTL8 peptide (hANGPTL8 peptide, SEQ ID NO: 337) (human)
T4 construct: also called N-terminal region ANGPTL8 peptide
T4 peptide: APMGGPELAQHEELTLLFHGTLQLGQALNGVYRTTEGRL

T5: peptide from the N-terminal coiled-coil region of human ANGPTL3 (hANGPTL3 peptide, SEQ ID NO: 338) (human)
T5 construct: also called hANGPTL3 shift peptide
T5 peptide: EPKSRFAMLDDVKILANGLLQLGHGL

B1: H4H15361P2 (antibody, human IgG4, V domains shown)
VH: EVQLVESGGGLVQPGRSLRLSCTASGFSFGDNAMGWVRQAPGKGLEWVSFIRRKASGGTTEYAASVKGRFTISRDDSKSIAYLQMNSLKTEDTGVYYCTRGGAVYGYWGQGTLVTVSS
VL: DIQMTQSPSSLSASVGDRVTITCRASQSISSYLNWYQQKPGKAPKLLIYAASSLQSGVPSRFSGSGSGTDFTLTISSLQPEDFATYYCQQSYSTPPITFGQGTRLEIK
notes: H4H prefix: human IgG4 Fc
B2: H4H15355P2 (antibody, human IgG4, V domains shown)
VH: QVQLVESGGGVVQPGRSLRLSCAASGFTFTNYAMHWVRQAPGKGLEWVAVISYDGSHTYFADSVKGRFTMSRDNSKNTISLQMNSLRPEDTAVYFCAGGGATTWFYFYGLDVWGQGTTVTVSS
VL: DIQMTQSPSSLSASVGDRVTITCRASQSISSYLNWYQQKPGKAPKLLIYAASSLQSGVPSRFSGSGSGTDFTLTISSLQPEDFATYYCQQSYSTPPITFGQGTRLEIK
notes: H4H prefix: human IgG4 Fc
B3: H4H15357P2 (antibody, human IgG4, V domains shown)
VH: EVQLVESGGGLVKPGGSLRLSCTASGFTFGNAWMSWVRQAPGKGLEWVGLIKGKTDGGTTNYAAPVKGRFTISRDDSKNTLYLHLNSLRTEDTALYYCTTDQVELRQYYYYGLDVWGQGTTVTVSS
VL: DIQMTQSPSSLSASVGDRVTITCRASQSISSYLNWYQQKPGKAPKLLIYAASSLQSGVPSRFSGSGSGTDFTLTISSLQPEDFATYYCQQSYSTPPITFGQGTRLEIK
notes: H4H prefix: human IgG4 Fc
B4: H4H15347P (antibody, human IgG4, V domains shown)
VH: EVQLVESGGGLVQPGGSLRLSCAASGFTFRNYAMNWARQAPGKGLEWVSGITGSGGATYYADSVKGRFTISRENSKNTLFLQMDTLRAEDTAVYYCAKDRRYFPTSGGPQWGQGTLVTVSS
VL: DIVMTQSPLSLPVTPGEPASISCRSSRSLLHSSGYNYLDWYLQKPGQSPQLLLYLGSNRASGVPDRFSGSGSGTYFTLKISRVDAEDVGVYYCMQALQTPWTFGQGTKVEIK
notes: H4H prefix: human IgG4 Fc
B5: H4H15314P2 (antibody, human IgG4, V domains shown)
VH: QVQLVQSGAEVKKPGASVKVSCKASGYTFTSYDINWVRQATGQGLEWMGWMNPNGDNTGYAQKFQGRVTMTGDTSISTAYMELSSLRSEDTAVYYCAREGIWGFDPWGQGTLVTVSS
VL: DIQMTQSPSSLSASVGDRVTITCRASQDIRNDLGWYQQKPGKAPKRLIYAASSLQSGVPSRFSGSGSGTEFTLTISSLQPEDFATFYCLQHNTFPRTFGQGTKVEIK
notes: H4H prefix: human IgG4 Fc
B6: H4H15363P2 (antibody, human IgG4, V domains shown)
VH: EVQLVESGGGLVQPGGSLRLSCAASGFTFSNYAMSWVRQVPGKGLEWVSTISGSGGSTYYADSVKGRFTISRDNSKNSLYLQMNSLRAEDTAVYYCAKLVRGVIGWFDPWGQGTLVTVSS
VL: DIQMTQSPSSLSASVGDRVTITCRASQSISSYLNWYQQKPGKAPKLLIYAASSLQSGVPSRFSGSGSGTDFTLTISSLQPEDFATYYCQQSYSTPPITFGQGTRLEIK
notes: H4H prefix: human IgG4 Fc
B7: H4H15354P2 (antibody, human IgG4, V domains shown)
VH: QVQLVESGGGVVQPGRSLRLSCTASGFTFNNYGIHWVRQAPGKGLEWVAVISYDGSNKFYAESVRGRFTISRDNSRNTLFLQMISLRGEDSAVYYCAKDRPYYDILTAHYPSDYYFYAMDVWGHGTTVTVSS
VL: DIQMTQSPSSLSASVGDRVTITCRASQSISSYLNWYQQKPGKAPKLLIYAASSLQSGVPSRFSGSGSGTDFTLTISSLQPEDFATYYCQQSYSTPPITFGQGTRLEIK
notes: H4H prefix: human IgG4 Fc
B8: H4H15335P (antibody, human IgG4, V domains shown)
VH: QVQLVESGGGVVQPGRSLRLSCAASGFTFNNYGIHWVRQAPGKGLEWVAVISYDESNKYYADSVKGRFTISRDNSKNTLYLQMNSLRAEDTAVYYCAKDIRIAARRHYYYYGMDVWGQGTTVTVSS
VL: DIQMTQSPSSVSASVGDRVTITCRASQGISRWLAWYQQKPGKAPKLLIYAASSLESGVPARFSGSGSGTDFTLTISSLQPEDFATYYCQQANSFPITFGPGTKVDIK
notes: H4H prefix: human IgG4 Fc

Target: T1, human ANGPTL8 expressed with C-terminal …
Assay: BLI Octet, captured antigen, 100 nM mAb, 25C
Description: (§1) Binding of ANGPTL8 antibodies to human and monkey ANGPTL8 proteins was investigated using Bio-layer Interferometry with an Octet HTX biosensor platform (ForteBio, A Division of Pall Life Sciences). All experiments were performed at 25° C. in 10 mM HEPES pH 7.4, 150 mM NaCl, 0.05% v/v Surfactant Tween-20, and 1 mg/ml BSA with the reaction multiwell plate agitated at 1000 rpm. Approximately 1.6 nm of human ANGPTL8 produced with a C-terminal mouse IgG2a Fc tag (hANGPTL8-mFc; SEQ ID NO: 340) or cynomolgus monkey ANGPTL8 produced with a C-terminal mouse IgG2a Fc tag (MfANGPTL8-mFc; SEQ ID NO: 341) was captured onto anti-mFc (AMC) Octet biosensors by submerging the sensors into wells containing 10 μg/mL of each protein for 4 minutes. Under the same conditions a negative control protein with the same mFc tag (hLDLR-mFc) was also coupled to the AMC sensor. All four sensors, […] and one blank, were then submerged into wells containing 100 nM of different ANGPTL8 monoclonal antibodies or an isotype control for 4 minutes.

mAb Binding Response (nm) | Binder
0.2 | B1
0.15 | B2
0.13 | B3
0.25 | B4
0.04 | B5
0.25 | B6
0.05 | B7
0.06 | B8

Target: T2, monkey ANGPTL8 expressed with …
Assay: BLI Octet, captured antigen, 100 nM mAb, 25C
Description: as §1

mAb Binding Response (nm) | Binder
0.21 | B1
0.13 | B2
0.08 | B3
0.29 | B4
0.01 | B5
0.26 | B6
0.03 | B7
0.04 | B8

These binders were tested against T6, anti-mFc (AMC) Octet biosensor, blank (assay: BLI Octet, blank AMC sensor, 100 nM mAb, 25C).
T6 construct: Sensor without captured protein, used as blank; also called Blank AMC Sensor
Description: as §1

mAb Binding Response (nm) | Binder
0.02 | B1
0.03 | B2
0.02 | B3
0.03 | B4
0 | B5
0.02 | B6
0.02 | B7
0.01 | B8

Target: T3, peptide from the N-terminal coiled-coil …
Assay: SPR, captured mAb, 500 nM peptide, 25C
Description: (§2) The assay utilized a format where ANGPTL8 antibodies were captured on the sensor surface and peptides were injected over the antibody surface. Peptides from the N-terminal coiled-coil region of human ANGPTL3 (hANGPTL3 peptide, SEQ ID NO: 338) and human ANGPTL4 (hANGPTL4 peptide, SEQ ID NO: 339) were also included as controls. Also included was a control antibody (H4H268P from US2011/0159015A1) that binds to the ANGPTL4 peptide and a negative isotype control antibody. All binding studies were performed in 10 mM HEPES pH 7.4, 150 mM NaCl, 3 mM EDTA, and 0.05% v/v Surfactant Tween-20 (HBS-ET running buffer) at 25° C. The HCA sensor surface was derivatized via amine coupling to a monoclonal mouse anti-human Fc antibody (GE, # BR-1008-39), and to this surface was captured approximately 1000 RU of each ANGPTL8 antibody or control antibody. Peptide stock solutions were diluted in HBS-ET running buffer to 500 nM and injected over the antibody-captured surfaces for 4 minutes at a flow rate of 30 μL/minute followed by the dissociation of bound peptide in HBS-ET running buffer for 10 minutes.
(§3) Dissociative half-lives (t½) were calculated from kd as: […]

500 nM hAngPTL4 peptide Bound (RU) | Binder | binding result
0 | B1 | no binding (tested: <9 RU at 500 nM peptide)
0 | B2 | no binding (tested: <9 RU at 500 nM peptide)
0 | B3 | no binding (tested: <9 RU at 500 nM peptide)
0 | B4 | no binding (tested: <9 RU at 500 nM peptide)
1 | B5 | no binding (tested: <9 RU at 500 nM peptide)
0 | B6 | no binding (tested: <9 RU at 500 nM peptide)
0 | B7 | no binding (tested: <9 RU at 500 nM peptide)
1 | B8 | no binding (tested: <9 RU at 500 nM peptide)

Target: T4, human ANGPTL8 peptide (hANGPTL8 …)
Assay: SPR, captured mAb, 500 nM peptide, 25C
Description: as §2, §3

500 nM hANGPTL8 peptide Bound (RU) | Binder | binding result
4 | B1 | no binding (tested: <9 RU at 500 nM peptide)
0 | B2 | no binding (tested: <9 RU at 500 nM peptide)
0 | B3 | no binding (tested: <9 RU at 500 nM peptide)
0 | B4 | no binding (tested: <9 RU at 500 nM peptide)
0 | B5 | no binding (tested: <9 RU at 500 nM peptide)
0 | B6 | no binding (tested: <9 RU at 500 nM peptide)
0 | B7 | no binding (tested: <9 RU at 500 nM peptide)
0 | B8 | no binding (tested: <9 RU at 500 nM peptide)

Target: T5, peptide from the N-terminal coiled-coil …
Assay: SPR, captured mAb, 500 nM peptide, 25C
Description: as §2, §3

500 nM hANGPTL3 peptide Bound (RU) | Binder | binding result
0 | B1 | no binding (tested: <9 RU at 500 nM peptide)
0 | B2 | no binding (tested: <9 RU at 500 nM peptide)
0 | B3 | no binding (tested: <9 RU at 500 nM peptide)
-1 | B4 | –
0 | B5 | no binding (tested: <9 RU at 500 nM peptide)
0 | B6 | no binding (tested: <9 RU at 500 nM peptide)
0 | B7 | no binding (tested: <9 RU at 500 nM peptide)
-1 | B8 | –
